We go through two molecules from US20040235714A1 (Amgen, published 2004).

Assay [1] deals with T1, human GDNFR-α Related Receptor 2 (GRR2), endogenously expressed on LA-N-5 neuroblastoma cells (human, UniProt O00451 22-444).
T1 construct: whole, on cells; GDNFR-α mRNA was not detected; The cells also express Ret; also called hGRR2
T1 sequence (looked up): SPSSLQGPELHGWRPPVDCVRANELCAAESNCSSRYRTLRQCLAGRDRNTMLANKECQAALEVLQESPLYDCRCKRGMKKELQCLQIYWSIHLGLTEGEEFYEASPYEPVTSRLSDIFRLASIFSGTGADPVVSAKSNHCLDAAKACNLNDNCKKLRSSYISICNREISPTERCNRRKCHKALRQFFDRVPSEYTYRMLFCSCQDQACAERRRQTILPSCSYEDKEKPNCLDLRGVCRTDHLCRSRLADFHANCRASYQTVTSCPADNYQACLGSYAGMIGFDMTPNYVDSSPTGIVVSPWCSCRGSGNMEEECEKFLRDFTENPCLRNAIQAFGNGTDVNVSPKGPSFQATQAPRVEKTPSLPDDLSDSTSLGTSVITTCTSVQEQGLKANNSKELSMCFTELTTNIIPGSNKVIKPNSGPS
The assay is described as follows: summary of Example 10 (cell binding and cross-linking).

The target in assay [2] is T2, rat GDNF receptor-alpha (GDNFR-α) expressed on cells from the rat cDNA clone (rat, UniProt Q62997 25-430, GPI-anchored to the cell membrane).
T2 construct: also called rGDNFR-α
T2 sequence: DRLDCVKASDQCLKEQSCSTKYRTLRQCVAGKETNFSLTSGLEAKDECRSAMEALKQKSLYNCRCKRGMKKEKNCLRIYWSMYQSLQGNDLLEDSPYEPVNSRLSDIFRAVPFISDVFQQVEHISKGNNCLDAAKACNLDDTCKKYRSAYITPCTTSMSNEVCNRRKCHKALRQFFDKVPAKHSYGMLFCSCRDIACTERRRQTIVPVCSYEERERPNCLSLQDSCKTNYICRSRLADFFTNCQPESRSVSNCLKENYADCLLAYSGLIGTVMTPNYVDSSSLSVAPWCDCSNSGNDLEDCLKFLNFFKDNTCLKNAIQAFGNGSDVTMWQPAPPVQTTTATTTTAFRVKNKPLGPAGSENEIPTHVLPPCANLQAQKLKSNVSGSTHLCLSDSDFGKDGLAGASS
The assay is described as follows: 50 pM [125I]GDNF on NGR-33 cells with or without excess unlabeled GDNF, gamma counting. The procedure:
(§1) Neuro-2a cells were transfected with a mammalian expression vector containing the rat GDNFR-α cDNA (such as the expression plasmid described above). Three clonal lines, NGR-16, NGR-33, and NGR-38 were tested for their ability to bind [¹²⁵I]GDNF. The unbound [¹²⁵I]GDNF was removed at the end of the incubation and the amount of radioactivity associated with the cells was determined as described in Experimental Procedures. […] Binding could be effectively competed by the addition of 500 nM unlabeled GDNF.
(§2) Neuro-2a cells (ATCC #CCL 131) were transfected with an expression plasmid, as described above, using the Calcium Phosphate Transfection System (GIBCO/BRL) according to the manufacturer's directions. Transfected cells were selected for expression of the plasmid by growth in 400 μg/mL G418 antibiotic (Sigma). G418 resistant clones were expanded and assayed for GDNFR-α expression by binding to [¹²⁵I]GDNF (Amersham, Inc., custom iodination, catalog #IMQ1057). Cells from each clone were seeded at a density of 3×10⁴ cells/cm² in duplicate wells of 24-well tissue culture plates (Becton Dickinson) pre-coated with polyornithine. […] Cells were then washed four times with ice-cold washing buffer, lysed in 1 M NaOH, and the cell-associated radiolabel quantitated in a 1470 Wizard Automated Gamma Counter (Wallac Inc.). […]

For assay [3], the target named is T2, rat GDNF receptor-alpha (GDNFR-α) …. Nature of the assay: equilibrium binding of [125I]GDNF to NGR-38 cells, Scatchard plot; low affinity site. As for the experimental part: (§3) Following incubation, unbound [¹²⁵I]GDNF was removed and the radioactivity associated with the cells was determined as described in Experimental Procedures. Results are depicted in FIG. 7: (A) Equilibrium binding of [¹²⁵I]GDNF to NGR-38 cells (circles) and Neuro-2a cells (squares) in the presence (open circles and open squares) or absence (filled circles and filled squares) of unlabeled GDNF; (B) Scatchard analysis of [¹²⁵I]GDNF binding to NGR-38 cells.
as §2

Assay [4] shares this target. Nature of the assay: GDNF binding to 293T cells expressing GDNFR-α; high affinity sites.
Assay [5] has the same target. The assay is described as follows: Scatchard analysis of GDNF binding to 293T cells transfected with a GDNFR-α cDNA clone in pBKRSV; low affinity site.
Assay [6] has the same target. Nature of the assay: 50 pM [125I]GDNF on NGR-16 cells with or without excess unlabeled GDNF, gamma counting. The procedure:
as §1, §2

The target is the same in assay [7]. Nature of the assay: 50 pM [125I]GDNF on NGR-38 cells with or without excess unlabeled GDNF, gamma counting. The procedure:
as §1, §2

The target is the same in assay [8]. Nature of the assay: equilibrium binding of [125I]GDNF to NGR-38 cells, Scatchard plot; high affinity site. The procedure:
as §3, §2

Assay [9] has the same target. The assay is described as follows: GDNF binding to 293T cells expressing GDNFR-α; low affinity sites.

B1: neurturin, recombinant human (ligand, UniProt Q99748 96-197, looked up)
chain: ARLGARPCGLRELEVRVSELGLGYASDETVLFRYCAGACEAAARVYDLGLRRLRQRRRLRRERVRAQPCCRPTAYEDEVSFLDAHSRYHTVHELSARECACV
modifications: radio-iodinated ([125I]) in the binding and cross-linking assays; unlabeled as competitor and in the phosphorylation assays
notes: mature; also called NTN
With B1, in assay [1], the binding result is recorded as “binds”.

B2: glial cell line-derived neurotrophic factor (GDNF), recombinant human (ligand, UniProt P39905 78-211, looked up)
chain: SPDKQMAVLPRRERNRQAAAANPENSRGKGRRGQRGKNRGCVLTAIHLNVTDLGLGYETKEELIFRYCSGSCDAAETTYDKILKNLSRNRRLVSDKVGQACCRPIAFDDDLSFLDDNLVYHILRKHSAKRCGCI
modifications: radio-iodinated ([125I]) in the binding and cross-linking assays; unlabeled as competitor and in the phosphorylation assays
notes: mature; also called unlabeled GDNF
For B2, the figures for the “ratio of [125I]GDNF bound in the absence and presence of unlabeled GDNF” value in [2], in assay [6] and in assay [7] were 8, 12.8 and 16, respectively. Moreover, the binding result in assay [1] is reported as “binds”. Also, the dissociation constant (Kd) in assay [3] is 0.332 nM; in assay [4], approximately 0.002 nM; in [5] it was approximately 0.5 nM; in [8], 0.0015 nM; in assay [9], approximately 0.2 nM.
